Results from US20220204592A1 (VISTERRA, published 2022).
Where a chain is given by its changes, count along the chain named. Where two headings read alike, the source gives them in different places.

Tests used:
[1] = target: H3 hemagglutinin of H3N2 strain X-31 (influenza A virus X-31 (H3N2), UniProt P03437 17-566); assay: cell-based or functional assay
[2] = target: T1, H1 hemagglutinin (A/Solomon Islands/3/2006) (influenza A virus A/Solomon …); assay: ELISA on coated HA, relative Kd (4-parameter fit)
[3] = target: T2, H1 hemagglutinin (A/Solomon Islands/20/1999) (influenza A virus A/Solomon …); assay: ELISA on coated HA
T2 construct: ELISA antigen

[4] = target: H1 hemagglutinin (A/California/04/2009) (influenza A virus A/California/04/2009 …); assay: cell-based or functional assay
[5] = target: H1 hemagglutinin of H1N1 Solomon Islands (isolate not specified); assay: cell-based or functional assay
[6] = target: H3 hemagglutinin (A/Fujian/411/2003) (influenza A virus A/Fujian/411/2003 …); assay: cell-based or functional assay
[7] = target: H3 hemagglutinin (A/Shangdong/09/93) (influenza A virus A/Shangdong/09/93 …); assay: cell-based or functional assay
[8] = target: H5 hemagglutinin (A/Duck/MN/1525/81) (influenza A virus A/Duck/MN/1525/81 …); assay: cell-based or functional assay
[9] = target: T1, H1 hemagglutinin (A/Solomon …); assay: ELISA on coated HA, relative Kd (4-parameter fit); remark: listed apart in the source

B1: Ab A18 (antibody, V domains shown)
VH: EVQLLESGGGLVKPGQSLKLSCAASGFTFTSYGMHWVRQPPGKGLEWVAVISYDGSYKYYADSVQGRFTISRDNSKNTLYLQMNSLRAEDTAVYYCAKDSRLRSLLYFEWLSQGYFNPWGAGTTLTVSS
VL: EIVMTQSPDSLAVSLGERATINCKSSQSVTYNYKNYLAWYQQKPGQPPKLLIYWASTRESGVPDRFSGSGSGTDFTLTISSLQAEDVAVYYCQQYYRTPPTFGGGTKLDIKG
- IC50 (RT-PCR, neutralisation) [1]: 0.4 µg/mL
- Kd [2]: 0.144 nM

B2: Ab 044 (antibody, V domains shown)
VH: B1 VH with E1Q, S7T, G33A, I51V, S56N, A121Q
VL: DIQMTQSPSSLSASVGDRVTITCRSSQSITFDYKNYLAWYQQKPGKAPKLLIYWGSYLESGVPSRFSGSGSGTDFTLTISSLQPEDFATYYCQQHYRTPPSFGQGTKVEIK
- Kd [3]: < 0.5 nM
- EC50, Neutral Red (CPE inhibition) [4]: 5.1 µg/mL
- EC50, Neutral Red (CPE inhibition) [5]: 1.2 µg/mL
- EC50, Neutral Red (CPE inhibition) [6]: 0.3 µg/mL
- EC50, Neutral Red (CPE inhibition) [7]: 0.6 µg/mL
- EC50, Neutral Red (CPE inhibition) [8]: 1.5 µg/mL

B3: Ab 032 (antibody, V domains shown)
VH: B1 VH with E1Q, S7T, G33A, I51V, S56N, A121Q
VL: B2 VL with D32N
- Kd [9]: < 0.025 nM
